B1: Hairpin Ribozyme (parent)
chain: GUCCUCUUUCACGUGCGCGUGAAAGAGAGAAGUGAACCAGAGAAACACACGUUGUGGUAUAUUACCUGGUA

In the series the parent is B1. The experiment in a line: self-cleavage, relative activity (ratio to wild type); higher = more cleavage; co-transcriptional.
Regarding U62C U70A, the self-cleavage is 0.194.
U62C U70C: the self-cleavage is 0.255.
With U60A U63G, the self-cleavage was found to be 0.136.
As for G68A U70A, the self-cleavage turned out to be 0.156.
As to A64U U67A, the self-cleavage came out at 0.206.
With A61C C65A, the self-cleavage came to 0.165.
With G57A U67A, the self-cleavage worked out at 0.2.
With U63G A64G the figure was 0.134; with U63G G68C, 0.169.
With C66U U67C the figure was 0.326; with G57U U63C, 0.146; with G57U U63G, 0.291.
To U63C A71G belongs 0.328; to U63C A71U, 0.191.
Consider U60A U70G, for which the self-cleavage was determined as 0.553.
As to G57A C65U, the self-cleavage worked out at 0.231.
As to A61G A71C, the self-cleavage is 0.308.
With A61G A71G the figure was 0.168; with U63C C65U, 0.131.
On to U63C C65A, for which the self-cleavage was 0.106.
On to A64C G69C, for which the self-cleavage was found to be 0.129.
With G57C A59C, the self-cleavage turned out to be 0.183.
U58C U67A: the self-cleavage turned out to be 0.231.
For G57C U70A, the self-cleavage is 0.184.
G57C U70C: the self-cleavage was 0.216.
With U63C G69A the figure was 0.216; with U70C A71C, 1.79; with U70C A71U, 1.64.
With A64C C65U the figure was 0.223.
With A64C C65A, the self-cleavage was determined as 0.186.
For the variant G69A A71C, the self-cleavage is 0.912.
On to G69A A71U, for which the self-cleavage amounted to 0.152.
As to U58C A64G, the self-cleavage worked out at 0.502.
U58C A64C: the self-cleavage is 0.178.
Consider A59U U70G, for which the self-cleavage turned out to be 0.159.
Regarding A59U U70C, the self-cleavage amounted to 0.199.
For the variant U58G U70A, the self-cleavage worked out at 0.849.
For the variant G68U A71G, the self-cleavage was 0.253.
G68U A71C: the self-cleavage worked out at 0.329.
For the variant G56U U63G, the self-cleavage stood at 0.0375.
For U60C A64C, the self-cleavage stood at 0.201.
Regarding U60C A64U, the self-cleavage came out at 0.183.
Take G57C U58A: the self-cleavage is 0.222.
For G57C U58C, the self-cleavage worked out at 0.258.
For the variant U67C A71U, the self-cleavage stood at 0.224.
With A61G U70C the figure was 0.146.
For U62C C66A, the self-cleavage amounted to 0.13.
In the case of C66U A71C, the self-cleavage was determined as 0.757.
In the case of U67G A71G, the self-cleavage worked out at 0.208.
Consider C65A C66A, for which the self-cleavage turned out to be 0.15.
For G68A A71U, the self-cleavage was 0.15.
With C66A G68C, the self-cleavage turned out to be 0.161.
Turning to C66A G68U, the self-cleavage turned out to be 0.105.
With G57U G69C the figure was 0.0914; with G57U G69U, 0.215.
Turning to U58G U67C, the self-cleavage is 0.0792.
Consider U58G U67A, for which the self-cleavage came to 0.181.
With G56U U70G the figure was 0.0481; with U62C A64U, 0.187.
With U62C A64C, the self-cleavage is 0.149.
For U67A G68A, the self-cleavage was determined as 0.115.
U67A G68C: the self-cleavage was determined as 0.157.
Consider U67A G68U, for which the self-cleavage stood at 0.128.
As to U62G G68U, the self-cleavage was 0.257.
Consider A64G A71U, for which the self-cleavage was 0.287.
As for A64G A71C, the self-cleavage came out at 0.76.
As for A64G A71G, the self-cleavage was determined as 0.554.
As to U63G C65U, the self-cleavage stood at 0.11.
Consider G56C U63G, for which the self-cleavage stood at 0.175.
In the case of G56C U63C, the self-cleavage is 0.17.
In the case of A61U C66A, the self-cleavage worked out at 0.122.
A61U C66U: the self-cleavage was 0.176.
In the case of A61G A64U, the self-cleavage came to 0.202.
Regarding U62A G68C, the self-cleavage stood at 0.156.
For the variant U62A G68A, the self-cleavage was determined as 0.187.
On to U60G A61C, for which the self-cleavage amounted to 0.315.
On to G57C G69U, for which the self-cleavage was determined as 0.0905.
As to U67G G68C, the self-cleavage was 0.177.
As for C65A G68A, the self-cleavage worked out at 0.378.
With U62C G69C the figure was 0.0631; with U58G U63A, 0.149.
To U58C U70G belongs 0.759; to U58C U70A, 0.897.
As for U60G U62A, the self-cleavage came out at 0.203.
Take G57C C65A: the self-cleavage worked out at 0.0756.
For U63A G69C, the self-cleavage stood at 0.0966.
Take A59U C65U: the self-cleavage turned out to be 0.13.
Turning to U58G G68U, the self-cleavage was 0.19.
As for U58C A61C, the self-cleavage was 0.145.
With G56U U60A, the self-cleavage was 0.219.
Turning to G56U U60C, the self-cleavage was 0.135.
With G56U U60G the figure was 0.231; with G57A U62A, 0.212.
To G57A U62C belongs 0.117.
For A64U A71G, the self-cleavage was determined as 0.311.
On to U58G A61U, for which the self-cleavage was 0.0693.
In the case of U62C G68C, the self-cleavage turned out to be 0.223.
U62C G68A: the self-cleavage came out at 0.2.
To G57C U63C belongs 0.272.
Take G56U U58G: the self-cleavage worked out at 0.0453.
Regarding A61U U70A, the self-cleavage amounted to 0.175.
With G56U A61C the figure was 0.134; with G56U A61G, 0.178; with U60G U67A, 0.144.
As for U60A A71C, the self-cleavage came to 1.24.
With U60A A71U the figure was 0.616; with U63C A64U, 0.185.
For C65U U67G, the self-cleavage was 0.229.
With C65U U67C, the self-cleavage worked out at 0.209.
To C65A G69A belongs 0.169.
With A61C A64C, the self-cleavage was 0.0878.
As for A59U U67A, the self-cleavage is 0.141.
With U60A U67C the figure was 0.155.
Regarding U60A U67G, the self-cleavage turned out to be 0.187.
With U62C U63G, the self-cleavage stood at 0.228.
To G57U G68U belongs 0.196.
As to U58A U62G, the self-cleavage turned out to be 0.296.
With A64G U67C the figure was 0.122.
As to A64G U67G, the self-cleavage was found to be 0.159.
Consider A64G U67A, for which the self-cleavage was 0.0458.
With A59C C66G, the self-cleavage is 0.253.
As for U62C U67A, the self-cleavage stood at 0.166.
As to A59U C66U, the self-cleavage worked out at 0.191.
For A64C G68U, the self-cleavage turned out to be 0.26.
Consider A64C G68A, for which the self-cleavage was 0.18.
On to G57A U70G, for which the self-cleavage is 0.111.
Turning to G57U U70A, the self-cleavage was 0.266.
To U70A A71C belongs 1.21.
In the case of C65G G68C, the self-cleavage was found to be 0.151.
On to A59G U62C, for which the self-cleavage was found to be 0.201.
For the variant A59G G68U, the self-cleavage came to 0.235.
As for A59G G68A, the self-cleavage came to 0.135.
For the variant U62G U67A, the self-cleavage amounted to 0.25.
Take U67C G69A: the self-cleavage is 0.178.
With A61U G68C the figure was 0.191; with A61U G68A, 0.219.
As to C65U C66U, the self-cleavage amounted to 0.185.
For the variant C65U C66A, the self-cleavage is 0.172.
With U58C U63A the figure was 0.212; with U58C U63G, 0.27.
With G57U U58A, the self-cleavage stood at 0.309.
For the variant U60A C66G, the self-cleavage was 0.191.
To U58C U62G belongs 0.242; to U58C U62C, 0.369.
For the variant G57A G68A, the self-cleavage came out at 0.119.
With A59G C66A the figure was 0.228.
To C65U G69U belongs 0.279.
In the case of U62G C66U, the self-cleavage is 0.12.
To A59C G68U belongs 0.138; to A59C G68A, 0.124.
With G57C U67A, the self-cleavage was found to be 0.257.
To A64U G69C belongs 0.259.
U62A U70A: the self-cleavage turned out to be 0.143.
Consider G57C C66U, for which the self-cleavage is 0.101.
With A59C A71G, the self-cleavage stood at 0.119.
To U58G U60C belongs 0.731; to U58A G69A, 0.201; to U58A G69C, 0.246.
Consider U58G C65G, for which the self-cleavage came out at 0.146.
Take G69U U70C: the self-cleavage turned out to be 0.304.
With G69A, the self-cleavage is 0.407.
On to G69C, for which the self-cleavage is 0.289.
With G69U, the self-cleavage is 0.243.
For the variant A59G U63G, the self-cleavage stood at 0.0571.
For the variant A59G U63A, the self-cleavage was found to be 0.262.
Turning to A59G A61U, the self-cleavage amounted to 0.141.
To A59G A61G belongs 0.082.
